Results on two molecules are retold here after patent publication US20250313631A1 (HUMMINGBIRD BIOSCIENCE PTE, published 2025).

One assay concerns the target T1, human B7H4 (human, UniProt Q7Z7D3 25-258, limits assumed).
T1 construct: also called VTCN1
T1 sequence (looked up): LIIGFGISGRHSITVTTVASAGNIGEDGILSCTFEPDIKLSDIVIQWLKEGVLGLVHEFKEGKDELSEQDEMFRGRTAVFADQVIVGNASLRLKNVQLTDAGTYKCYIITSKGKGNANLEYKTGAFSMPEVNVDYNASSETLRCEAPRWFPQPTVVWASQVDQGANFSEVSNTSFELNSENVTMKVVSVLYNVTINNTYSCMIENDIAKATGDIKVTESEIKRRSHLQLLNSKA
In words: ELISA, plate coated with the antigen.

The next assay has as its target human PD-1 (human, UniProt Q15116 25-167). The assay is described as follows: ELISA, plate coated with the antigen.
The target of the next assay is T2, human B7H7 (human, UniProt Q9UM44 23-344).
T2 construct: also called HHLA2
T2 sequence (looked up): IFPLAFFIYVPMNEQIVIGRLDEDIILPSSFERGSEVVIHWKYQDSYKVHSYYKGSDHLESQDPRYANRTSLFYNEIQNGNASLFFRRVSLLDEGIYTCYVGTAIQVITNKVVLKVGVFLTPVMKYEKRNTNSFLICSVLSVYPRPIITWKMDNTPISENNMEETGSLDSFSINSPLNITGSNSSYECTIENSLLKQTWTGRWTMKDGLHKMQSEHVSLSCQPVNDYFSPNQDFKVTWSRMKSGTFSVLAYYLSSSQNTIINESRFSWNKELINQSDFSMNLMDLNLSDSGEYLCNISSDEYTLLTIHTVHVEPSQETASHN
The assay is described as follows: ELISA, plate coated with the antigen.

The target in a further assay is T3, human B7H6 (human, UniProt Q68D85 25-262).
T3 construct: also called NCR3LG1
T3 sequence (looked up): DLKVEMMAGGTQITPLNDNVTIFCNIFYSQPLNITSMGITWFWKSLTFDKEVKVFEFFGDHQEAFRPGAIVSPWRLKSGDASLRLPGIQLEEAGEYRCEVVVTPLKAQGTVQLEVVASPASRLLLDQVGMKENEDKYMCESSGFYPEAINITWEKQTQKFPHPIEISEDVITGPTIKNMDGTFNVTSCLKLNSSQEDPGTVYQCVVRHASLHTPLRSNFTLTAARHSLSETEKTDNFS
The assay is described as follows: ELISA, plate coated with the antigen.

Assay [1] has as its target T4, recombinant mouse VISTA (His-tagged) (mouse, UniProt Q9D659 33-191).
T4 construct: also called murine VISTA; mVISTA
T4 sequence (looked up): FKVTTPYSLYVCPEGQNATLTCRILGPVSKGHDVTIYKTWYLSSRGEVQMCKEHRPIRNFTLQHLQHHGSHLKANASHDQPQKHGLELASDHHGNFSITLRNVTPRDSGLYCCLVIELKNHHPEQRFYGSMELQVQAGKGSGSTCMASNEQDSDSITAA
In words: BLI (Octet), 1:1 global fit, His-tagged mouse VISTA captured.

Assay [2] concerns the target T5, recombinant human VISTA (His-tagged) (human, UniProt Q9H7M9 33-194).
T5 construct: bought soluble protein (Sino Biological); also called hVISTA; human VISTA polypeptide
In words: ELISA, target protein coated, % Binding against log M of antibody.

For the next assay, the target named is human HER3 (human, UniProt P21860 20-643). The assay is described as above.
A further assay addresses T6, human PD-L1 (human, UniProt Q9NZQ7 19-239).
T6 construct: captured through a His tag in the BLI experiments; also called hPD-L1; B7H1/PDL-1
The description is as above.

The target in assay [3] is T4, recombinant mouse VISTA (His-tagged). Described as above.
Assay [4] has as its target T7, recombinant cynomolgus macaque VISTA (His-tagged) (cynomolgus macaque, UniProt A0A7N9IB00 33-194).
T7 construct: also called cyno VISTA; cynomolgus monkey VISTA
The assay is described as above.

Assay [5] concerns the target T5, recombinant human VISTA (His-tagged). In words: SPR (Biacore), VISTA-HIS captured, antibody as analyte, 1:1 model; SPR (Biacore), human VISTA.
Assay [6] has the same target. The assay is described as follows: ELISA on coated human VISTA, antibody diluted in buffer of pH 7.
For assay [7] the target is unchanged. The assay is described as follows: antigen-binding ELISA; HMBD-002 in F10, day 30 at 40°C.
For assay [8] the target is unchanged. The assay is described as follows: antigen-binding ELISA; HMBD-002 in F1, day 30 at 40°C.
Assay [9] has the same target. The assay is described as follows: ELISA, VISTA-HIS protein coated; ELISA, human VISTA-HIS.
The target is the same in assay [10]. In words: antigen-binding ELISA; reference standard run with the day 0 samples; reference standard, run with the Day 0 samples.
The target is the same in assay [11]. The assay is described as follows: ELISA on coated human VISTA, antibody diluted in buffer of pH 7.5.
For assay [12] the target is unchanged. The assay is described as follows: antigen-binding ELISA; HMBD-002 in F1, day 10 at 40°C.
For assay [13], the target named is T8, cynomolgus macaque VISTA expressed on cells (cynomolgus macaque, UniProt A0A7N9IB00 33-311).
T8 construct: whole, on cells; also called NHP VISTA on HEK293T cells; VISTA on NHP CD11b+ myeloid cells
In words: flow cytometry, HEK293T cells expressing the NHP VISTA ortholog.

T6 sequence (Q9NZQ7 19-239 limits assumed): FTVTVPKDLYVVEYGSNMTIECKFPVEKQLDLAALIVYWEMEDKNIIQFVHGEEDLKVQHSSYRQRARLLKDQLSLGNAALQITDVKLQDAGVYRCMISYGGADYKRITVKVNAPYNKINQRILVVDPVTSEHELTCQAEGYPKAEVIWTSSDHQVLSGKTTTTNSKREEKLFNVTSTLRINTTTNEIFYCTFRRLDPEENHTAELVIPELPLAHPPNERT
Chain of human PD-1 (Q15116 25-167 limits assumed): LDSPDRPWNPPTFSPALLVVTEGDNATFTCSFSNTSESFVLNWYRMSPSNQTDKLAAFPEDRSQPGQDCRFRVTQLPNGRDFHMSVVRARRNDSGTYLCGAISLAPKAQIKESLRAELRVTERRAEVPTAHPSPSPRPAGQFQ

B1: anti-VISTA clone 4M2-C12 IgG1 (antibody)
heavy: not shown
light: DIVITQTPAILSTSPGEKVTMTCRASSSVGYIHWYQQKPGSSPKPWIYATSNLASGVPARFSGSGSGTSNSLTITRVEAEDAATYYCQQWSSYPPITFGGGTKLEVKRTVAAPSVFIFPPSDEQLKSGTASVVCLLNNFYPREAKVQWKVDNALQSGNSQESVTEQDSKDSTYSLSSTLTLSKADYEKHKVYACEVTHQGLSSPVTKSFNRGEC
notes: mouse variable regions on human IgG1/kappa constant regions; also called V4; V4pr
Turning to B1, the binding result with human B7H4 is on record as “no binding (tested: log -7.5 M)”; with human PD-1, “no binding (tested: log -7.5 M)”; with human B7H7, “no binding (tested: log -7.5 M)”; with human B7H6, “no binding (tested: log -7.5 M)”; with human HER3 it was “no binding (tested: about 10^-6.2 M (log M axis))”; with human PD-L1, “no binding (tested: about 10^-6.7 M (log M axis))”. Moreover, in [1], the Kd was determined as 108 nM. In assay [1], the off-rate (koff) is 0.00656 s⁻¹. The kon in assay [1] came out at 60900 M⁻¹ s⁻¹. Further, the values for the half-maximal effective concentration (EC50) in assay [2], in assay [3] and in assay [4] were 0.256 nM, 5.93 nM and 0.282 nM, respectively.

B2: V4-C26 hIgG4 (antibody)
heavy: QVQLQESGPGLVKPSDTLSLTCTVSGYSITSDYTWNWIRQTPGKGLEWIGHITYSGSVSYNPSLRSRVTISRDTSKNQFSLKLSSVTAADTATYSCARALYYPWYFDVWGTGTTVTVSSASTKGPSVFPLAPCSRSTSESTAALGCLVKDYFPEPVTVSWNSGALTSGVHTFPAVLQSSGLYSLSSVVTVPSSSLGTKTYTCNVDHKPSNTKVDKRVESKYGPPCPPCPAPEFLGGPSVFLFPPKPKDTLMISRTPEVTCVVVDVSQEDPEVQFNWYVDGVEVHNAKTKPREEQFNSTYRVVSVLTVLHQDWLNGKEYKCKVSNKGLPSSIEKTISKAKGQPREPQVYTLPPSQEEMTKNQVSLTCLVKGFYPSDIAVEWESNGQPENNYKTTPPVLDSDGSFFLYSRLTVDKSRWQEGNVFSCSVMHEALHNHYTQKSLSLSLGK
light: EIVLTQSPATLSLSPGERATLSCRASSSVGYIHWYQQKPGQAPRPIIYTTSNRATGIPARFSGSGSGTDNTLTISSLEPEDSAVYYCQQWSSYPPITFGGGTKLEVKRTVAAPSVFIFPPSDEQLKSGTASVVCLLNNFYPREAKVQWKVDNALQSGNSQESVTEQDSKDSTYSLSSTLTLSKADYEKHKVYACEVTHQGLSSPVTKSFNRGEC
notes: human IgG4 (S228P)/kappa format; also called HMBD-002; HMBD-002-V4C26
For B2, the dissociation constant (Kd) in [5] was 0.407 nM. Also, the concentration for a half-maximal effect (EC50) in assay [6] was 0.0343 nM; in assay [7], 0.027 nM; in [8], 0.0215 nM; in assay [9], 0.00512 nM; in assay [10], 0.0307 nM; in [11] it was 0.0287 nM. Further, the EC50 is 0.0306 nM in assay [12] and 2.57 nM in [13].
